Reference: US20080206139A1, “DELIVERY SYSTEM FOR DIAGNOSTIC AND THERAPEUTIC AGENTS” (The Penn State Research Foundation, priority 2006, published 2008)

What was measured:
IL-13Rα2 = target: T1, IL-13Rα2 (Homo sapiens, UniProt Q14627); assay: Cytotoxicity neutralization assay with IL-13 and its mutants against cytotoxin IL13-PE38QQR; assay type: cell-based; conditions: 100 ng/ml protein; cytotoxin IL13-PE38QQR fixed at 10 ng/ml
T1 sequence (Q14627 27-380): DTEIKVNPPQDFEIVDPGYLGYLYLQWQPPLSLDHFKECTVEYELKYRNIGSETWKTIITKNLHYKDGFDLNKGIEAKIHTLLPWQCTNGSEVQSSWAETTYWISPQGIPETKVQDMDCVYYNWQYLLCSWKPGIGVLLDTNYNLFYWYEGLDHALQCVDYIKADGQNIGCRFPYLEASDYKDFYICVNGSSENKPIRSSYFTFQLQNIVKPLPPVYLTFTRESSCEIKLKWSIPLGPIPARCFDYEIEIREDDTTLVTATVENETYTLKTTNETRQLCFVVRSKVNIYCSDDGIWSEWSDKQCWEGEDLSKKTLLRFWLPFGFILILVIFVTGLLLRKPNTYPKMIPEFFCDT
Description: Additionally, position K105 of this region of IL-13 is mutated into a variety of amino acids and the mutants' cytotoxic neutralization potential and binding affinity towards IL-13Rα2 is determined. […] In this titered cytotoxicity neutralization experiment, higher neutralization efficiency against the IL13-PE38QQR cytotoxin, for the mutant IL13.K105R is observed (Madhankumar A. B., Mintz, A., and Debinski, W. (2004) Neoplasia (New York) 6, 15-22). IL13.K105R is able to neutralize the cytotoxicity to 99% at 100 ng/ml concentration when compared with its blocking efficiency at 1000 ng/ml concentration. However, the wild type IL-13 and the mutant IL13.K106R and IL13.R109K have only 86.5%, 86.7% and 80.7% of the cytotoxicity neutralization efficiency with respect to their neutralization efficiency at 1000 ng/ml concentration. […] The high affinity mutant IL13.K105R is used as a ligand to conjugate to liposomes in order to better target the glioma associated IL-13Rα2 receptor.

U251 glioma cells = assay: Flow cytometry of intracellular doxorubicin fluorescence, with or without Pgp inhibitor cyclosporine A; assay type: cell-based, Human; conditions: 20 μM drug, 2 h
Description: Flow cytometry: Flow cytometry was used to measure total intracellular doxorubicin fluorescence. In this report we refer to fluorescence intensity as intracellular drug content. 1×10^6 cells were exposed to 20 μM of drug as (a) free DXR (b) DXR encapsulated IL13 conjugated liposomes (c) DXR encapsulated unconjugated liposomes for 2 h. All drug treatments and post treatment incubations were performed in complete growth medium. The cells were washed to remove any free adherent DXR using PBS and centrifuged. Cells were released from tissue culture dishes with 0.05% trypsin/0.02% EDTA followed by PBS washing (centrifugation, 5 min 500 g) and resuspended in PBS for flow cytometry assay. The intracellular accumulation of inherently fluorescent doxorubicin was evaluated using a fluorescence activated cell analyzer. A single 15 mW argon ion laser beam (488 nm) was used to excite the fluorescence of DXR. A total of 10000 cells were analyzed for each histogram. Experiments were repeated 3 times and the fluorescence intensities of DXR were expressed in arbitrary units.
Effect of Pgp inhibitor on the internalization of IL13 conjugated liposomes in the glioma cells: About 50000 U251 glioma cells were plated in a small petridish and were exposed to either IL13 conjugated liposomes carrying 20 μM of doxorubicin or the same concentration of free doxorubicin (20 μM) for 2 hours. […]

In the case of IL13.K106R: mutant of IL-13, the “cytotoxicity neutralization efficiency with respect to neutralization efficiency at 1000 ng/ml” value (IL-13Rα2) is reported as 86.7%.
In the case of “wild type IL-13: human cytokine interleukin-13, expressed in E. coli as His-tagged protein”, the “cytotoxicity neutralization efficiency with respect to neutralization efficiency at 1000 ng/ml” value (IL-13Rα2) is reported as 86.5%.
For `COc1cccc2c1C(=O)c1c(O)c3c(c(O)c1C2=O)C[C@@](O)(C(=O)CO)C[C@@H]3O[C@H]1C[C@H](N)[C@H](O)[C@H](C)O1` [free DXR, doxorubicin], the “intracellular doxorubicin fluorescence (flow cytometry curve shift)” value (U251 glioma cells) was “increase in the cell fluorescence”.
